In patent publication US20240285749A1:

Target: HA ectodomain trimer (UniProt Q289M7)
Experiment: Octet

Q: How did the Kd (Fab) turn out when CR6261 was run?
A: 0.39 nM

Q: For F10, which Kd (scFv) is on record?
A: 0.063 nM
